T1: Human Id4: Histidine (human, UniProt P47928 1-161, limits assumed)
T1 construct: E. coli fusion protein (vector pGW07); also called h-Id4: His; not shown: His-tag
T1 sequence (looked up): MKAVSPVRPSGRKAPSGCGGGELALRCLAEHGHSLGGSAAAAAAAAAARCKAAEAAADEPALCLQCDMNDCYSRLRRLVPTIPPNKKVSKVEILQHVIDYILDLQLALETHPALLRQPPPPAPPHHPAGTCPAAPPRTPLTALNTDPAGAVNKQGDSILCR

T2: Human Id3: Histidine (human, UniProt Q02535 1-119, limits assumed)
T2 construct: E. coli fusion protein (vector pGW07); also called h-Id3: His; not shown: His-tag
T2 sequence (looked up): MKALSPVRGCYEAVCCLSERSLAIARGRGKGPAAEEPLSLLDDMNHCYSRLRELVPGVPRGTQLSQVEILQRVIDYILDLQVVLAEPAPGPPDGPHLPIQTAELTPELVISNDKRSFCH

T3: Human Id2: Histidine (human, UniProt Q02363 1-134, limits assumed)
T3 construct: E. coli fusion protein (vector pGW07); also called h-Id2: His; not shown: His-tag
T3 sequence (looked up): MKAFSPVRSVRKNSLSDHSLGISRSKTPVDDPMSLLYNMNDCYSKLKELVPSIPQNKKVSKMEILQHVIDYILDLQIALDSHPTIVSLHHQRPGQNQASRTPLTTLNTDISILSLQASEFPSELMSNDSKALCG

T4: Mouse Id1: Histidine (mouse, UniProt P20067-2 1-148)
T4 construct: E. coli fusion protein (vector pGW07); also called m-Id1-His; not shown: His-tag
T4 sequence: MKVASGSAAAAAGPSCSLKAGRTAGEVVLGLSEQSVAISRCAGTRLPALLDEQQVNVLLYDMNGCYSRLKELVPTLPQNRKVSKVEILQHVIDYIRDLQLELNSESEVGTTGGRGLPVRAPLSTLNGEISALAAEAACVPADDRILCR

B1: rabbit monoclonal anti-mouse Id1, clone #BCH-1/#37-2 (antibody, V domains shown)
VH: QSVEESGGRLVTPGTPLTLTCKVSGFDINSYAMDWFRQAPGKGLEWIGMMSTRGNTYYTSWAKGRFTISKTSSTTVDLKMTSLTTEDTATYFCARGGLWGPGTLVTVSS
VL: RVLTQTASPVSAAVGGTVTINCQASQSVYNGNRLGWYQLKPGQSPKELIHDASTLASGVPSRFRGSGSGTQFTLTINDVQCDDAATYYCVGSYACSTGDCNVFGGGTEVVVK
notes: Rabbit IgG from hybridoma, Protein G purified; also called m Id1 MoAb 37-2; Rabbit Monoclonal Anti-Mouse Id1 (#37-2)

Assays:
Human Id4: Histidine = target: T1, Human Id4: Histidine; assay: ELISA, coated antigen; relative to human Id1
[1] = target: Human Id1: Histidine (human) (UniProt P41134); assay: sandwich ELISA, 5-3-coated wells, human Id1:His 0.5 ng/ml, detected with rabbit polyclonal B-5133-HRP
[2] = target: Human Id1: Histidine (human) (UniProt P41134); assay: sandwich ELISA, 5-3-coated wells, human Id1:His 1.0 ng/ml, detected with rabbit polyclonal B-5133-HRP
[3] = target: Human Id1: Histidine (human) (UniProt P41134); assay: ELISA, coated antigen; reference human Id1
[4] = target: Human Id1: Histidine (human) (UniProt P41134); assay: sandwich ELISA, 5-3-coated wells, human Id1:His 10.0 ng/ml, detected with rabbit polyclonal B-5133-HRP
Human Id3: Histidine [5] = target: T2, Human Id3: Histidine; assay: ELISA, coated antigen, Ab 0.25 ug/ml
Procedure: (§1) Incubate plates at 2-8° C. overnight (16-24 hours). [0145] 11. Shake off the BSA solution. [0146] 12. Dispense 250 μL of 2.5% sucrose solution into each well. [0147] 13. Incubate plates at 2-8° C. for 4 hours. [0148] 14. Shake off sucrose solution. [0149] 15. Dry in vacuum at room temperature overnight. Screening Method [0150] 1. Dispense 100 μL of antibody diluent, diluted rabbit polyclonal anti-Id1 into appropriate wells. […] 2. Incubate at room temperature with mechanical shaking at 750 rpm for 90 minutes. [0152] 3. Remove the incubation mixture by flicking plate content into an appropriate waste container, followed by rinsing the wells 5 times with distilled water. […] 4. Strike the wells sharply onto absorbent paper or paper towels to remove all residual water droplets. [0154] 5. Dispense 100 μL of Goat Anti-Rabbit IgG-HRP Conjugate Reagent into each well. Gently mix for 5 seconds. [0155] 6. Incubate at room temperature with mechanical shaking at 750 rpm for 90 minutes. […] 7. Repeat procedures 3 and 4. [0157] 8. Dispense 100 μL of TMB Reagent into each well. Gently mix for 5 seconds. [0158] 9. Incubate at room temperature with mechanical shaking at 750 rpm for 20 minutes. [0159] 10. Add 100 μL of Stop Solution (1N HCl) into each well. [0160] 11. Gently mix for 10 seconds to ensure a complete mixing. […] 12. Read optical density (absorbance) at 450 nm. Results from this assay were used to select the rabbit sera with the highest antibodies titer that selectively reacts with mouse Id1 or human Id1 or both.
(§2) A comparison was carried out between the reactivity of the rabbit monoclonal anti-mouse Id1, clone #BCH-1/#37-2, of this invention and the mouse monoclonal anti-mouse/human Id1 from BD Pharmingen with the following antigens prepared in Example 5: mouse Id1:His, human Id1:His, human Id2:His, human Id3:His, and GST. These antigens and protein were used to coat the wells.
(§3) Materials and methods were those described in Example 9 except (a) Pharmingen's mouse monoclonal anti-mouse Id1 was used in addition to the rabbit monoclonal anti-mouse Id1 (Example 10), and (b) goat anti-mouse IgG-HRP conjugate was used to process the wells treated with the Pharmingen monoclonal antibody and polyclonal goat anti-rabbit IgG-HRP conjugate was used to process wells treated with rabbit monoclonal anti-mouse Id1.

[6] = target: T5, glutathione S-transferase (GST) (UniProt P08515 1-218 = GST); assay: ELISA, coated antigen, Ab 0.25 ug/ml
T5 construct: Coated on wells as control for the fusion partner of the immunogen
Procedure: as §1, §2, §3

Human Id2: Histidine [7] = target: T3, Human Id2: Histidine; assay: ELISA, coated antigen, Ab 0.25 ug/ml
Procedure: as §1, §2, §3

Mouse Id1: Histidine [8] = target: T4, Mouse Id1: Histidine; assay: ELISA, coated antigen, Ab 0.25 ug/ml
Procedure: as §1, §2, §3

[9] = target: Human Id1: Histidine (human) (UniProt P41134); assay: ELISA, coated antigen, Ab 10.0 ug/ml
Human Id3: Histidine [10] = target: T2, Human Id3: Histidine; assay: ELISA, coated antigen, Ab 1.00 ug/ml
Procedure: as §1, §2, §3

[11] = target: T5, glutathione S-transferase (GST); assay: ELISA, coated antigen, Ab 1.00 ug/ml
Procedure: as §1, §2, §3

Human Id2: Histidine [12] = target: T3, Human Id2: Histidine; assay: ELISA, coated antigen, Ab 1.00 ug/ml
Procedure: as §1, §2, §3

Mouse Id1: Histidine [13] = target: T4, Mouse Id1: Histidine; assay: ELISA, coated antigen, Ab 1.00 ug/ml
Procedure: as §1, §2, §3

[14] = target: Human Id1: Histidine (human) (UniProt P41134); assay: ELISA, coated antigen, Ab 2.50 ug/ml

Chain of Human Id1: Histidine (human) (P41134 whole entry): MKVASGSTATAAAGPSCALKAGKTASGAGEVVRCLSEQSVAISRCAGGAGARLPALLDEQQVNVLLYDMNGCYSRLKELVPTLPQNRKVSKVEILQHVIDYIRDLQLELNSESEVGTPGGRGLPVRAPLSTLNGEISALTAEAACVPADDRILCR
T5 sequence (P08515 whole entry, the tested form may be a part): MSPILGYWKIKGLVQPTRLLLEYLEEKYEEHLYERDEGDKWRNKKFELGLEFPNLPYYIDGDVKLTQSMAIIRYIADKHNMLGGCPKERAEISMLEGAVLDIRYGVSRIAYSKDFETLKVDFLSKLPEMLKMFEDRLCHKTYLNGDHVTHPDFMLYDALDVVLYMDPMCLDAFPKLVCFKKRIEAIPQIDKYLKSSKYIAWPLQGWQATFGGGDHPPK

Row | Molecule | Cross-reactivity (%) (Human Id4: Histidine) | A450 [1] | A450 [2] | Cross-reactivity (%) [3] | A450 [4] | A450 (Human Id3: Histidine [5]) | A450 [6] | A450 (Human Id2: Histidine [7]) | A450 (Mouse Id1: Histidine [8]) | A450 [9] | A450 (Human Id3: Histidine [10]) | A450 [11] | A450 (Human Id2: Histidine [12]) | A450 (Mouse Id1: Histidine [13]) | A450 [14]
1 | rabbit monoclonal anti-human Id1, clone #BCH-2/#5-3 (antibody) | < 1% | 0.085 A450 | 0.124 A450 | 100% | 0.815 A450 | – | – | – | – | – | – | – | – | – | –
2 | B1 | – | – | – | – | – | 0.047 A450 | 0.051 A450 | 0.049 A450 | 2 A450 | 0.194 A450 | 0.063 A450 | 0.062 A450 | 0.053 A450 | 2.88 A450 | 0.132 A450
